As usually defined, the IC50 is the midpoint of a concentration-inhibition curve. The low end stands for higher potency, the high end for lower potency. What is called Km is the concentration of substrate that gives half-maximal velocity. As usually defined, the kcat is the maximal rate divided by the concentration of active sites. Broadly, the kcat/Km is the turnover number divided by the Michaelis constant.

The record followed here is paper PMC11101554, “Pyruvate kinase 2 from Synechocystis sp. PCC 6803 increased substrate affinity via glucose-6-phosphate and ribose-5-phosphate for phosphoenolpyruvate consumption” (Plant Molecular Biology, 2024).

Data set [1] addresses T1, SyPyk2 (Synechocystis pyruvate kinase 2) (Synechocystis sp. PCC 6803, UniProt P73534).
T1 construct: gene pyk2; synthesized gene in pGEX6P-1 (BamHI-XhoI), GST fusion from E. coli BL21, GST tag cut by PreScission protease; untagged 63 kDa
T1 sequence (P73534 1-591): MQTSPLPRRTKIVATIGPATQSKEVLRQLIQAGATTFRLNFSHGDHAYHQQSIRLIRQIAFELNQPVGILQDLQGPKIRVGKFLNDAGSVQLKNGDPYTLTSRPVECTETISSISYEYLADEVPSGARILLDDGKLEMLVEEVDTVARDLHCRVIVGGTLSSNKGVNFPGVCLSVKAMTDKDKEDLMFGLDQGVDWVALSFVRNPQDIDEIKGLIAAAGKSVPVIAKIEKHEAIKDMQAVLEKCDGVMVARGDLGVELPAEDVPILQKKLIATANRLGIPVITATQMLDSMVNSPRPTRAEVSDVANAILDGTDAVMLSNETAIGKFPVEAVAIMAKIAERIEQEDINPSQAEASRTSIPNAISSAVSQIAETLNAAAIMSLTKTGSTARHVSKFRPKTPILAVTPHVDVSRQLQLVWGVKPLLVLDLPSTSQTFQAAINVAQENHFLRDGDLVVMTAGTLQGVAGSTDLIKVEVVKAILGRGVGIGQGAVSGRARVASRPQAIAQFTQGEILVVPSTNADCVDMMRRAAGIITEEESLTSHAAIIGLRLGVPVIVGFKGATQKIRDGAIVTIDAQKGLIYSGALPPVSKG
The data set can be described thus: LDH-coupled assay, NADH oxidation at […] nm. Type of data set: biochemical. The following applies: read-out: % activity at 1 mM.

Data set [2] has as its target T1, SyPyk2 (Synechocystis pyruvate kinase 2). The data set can be described thus: LDH-coupled assay, NADH oxidation at […] nm. In kind it is biochemical.
Substrate in data set [3]: Nc1ncnc2c1ncn2[C@@H]1O[C@H](COP(=O)(O)OP(=O)(O)O)[C@@H](O)[C@H]1O
In words: purified protein. In kind it is biochemical, Synechocystis sp. PCC 6803. The following applies: 55 °C, pH 7.0 MES-NaOH, 5 mM PEP, 15 mM MgCl2, 100 mM KCl, hyperbolic.

Substrate in data set [4]: C=C(OP(=O)(O)O)C(=O)O
In words: purified protein. To be noted: 55 °C, pH 7.0 MES-NaOH, 2 mM ADP, 15 mM MgCl2, 100 mM KCl, no effector, sigmoidal (half-saturation, cooperative). In kind it is biochemical, Synechocystis sp. PCC 6803.

Turning to `O=P(O)(O)OC[C@H]1OC(O)[C@H](O)[C@@H](O)[C@@H]1O` (stereo partly drawn) [G6P, glucose-6-phosphate], the activity at 1000 µM in data set [1] was ~200%.
Same read-out and setting: the value for `O=P(O)(O)OC[C@H]1OC(O)[C@H](O)[C@@H]1O` (stereo partly drawn) [R5P, ribose-5-phosphate] was ~150%.
`Nc1ncnc2c1ncn2[C@@H]1O[C@H](COP(=O)(O)OP(=O)(O)OP(=O)(O)O)[C@@H](O)[C@H]1O` [ATP, adenosine triphosphate]: the midpoint of inhibition in data set [2], the IC50, lay at 4.1 mM.

B1: SyPyk2 (Synechocystis pyruvate kinase 2) (Synechocystis sp. PCC 6803 substr. Kazusa) (protein)
chain: MQTSPLPRRTKIVATIGPATQSKEVLRQLIQAGATTFRLNFSHGDHAYHQQSIRLIRQIAFELNQPVGILQDLQGPKIRVGKFLNDAGSVQLKNGDPYTLTSRPVECTETISSISYEYLADEVPSGARILLDDGKLEMLVEEVDTVARDLHCRVIVGGTLSSNKGVNFPGVCLSVKAMTDKDKEDLMFGLDQGVDWVALSFVRNPQDIDEIKGLIAAAGKSVPVIAKIEKHEAIKDMQAVLEKCDGVMVARGDLGVELPAEDVPILQKKLIATANRLGIPVITATQMLDSMVNSPRPTRAEVSDVANAILDGTDAVMLSNETAIGKFPVEAVAIMAKIAERIEQEDINPSQAEASRTSIPNAISSAVSQIAETLNAAAIMSLTKTGSTARHVSKFRPKTPILAVTPHVDVSRQLQLVWGVKPLLVLDLPSTSQTFQAAINVAQENHFLRDGDLVVMTAGTLQGVAGSTDLIKVEVVKAILGRGVGIGQGAVSGRARVASRPQAIAQFTQGEILVVPSTNADCVDMMRRAAGIITEEESLTSHAAIIGLRLGVPVIVGFKGATQKIRDGAIVTIDAQKGLIYSGALPPVSKG
notes: synthesized gene in pGEX6P-1 (BamHI-XhoI), GST fusion from E. coli BL21, GST tag cut by PreScission protease; untagged 63 kDa
As for B1, in the data set “purified protein [3]”, the Km turned out to be 52.7 ± 7.6 µM, the kcat was 251 ± 6 s⁻¹ and the kcat/Km turned out to be 4.84e+06 ± 733000 M⁻¹ s⁻¹. Further, in “purified protein [4]”, the Km came to 1530 ± 70 µM, the kcat turned out to be 253 ± 11 s⁻¹ and the kcat/Km worked out at 166000 ± 3000 M⁻¹ s⁻¹.
